Measurements taken from PMC6283471.

Experiments:
[1] = molecular target: CCR5 on HEK-R5 cells (HEK 293T cells stably expressing CCR5) (UniProt P51681); test: radioligand binding
[2] = molecular target: FLAG/SNAP-tagged wild-type (WT) CCR5, P51681; test: radioligand binding; settings: remark: other sources report otherwise

Row | Molecule | Kd [1] [nM] | Kd [2] [nM]
1 | gp120 Bx08-sCD4 complex (from UniProt P01730) | 14.1 | –
2 | 125I-CCL3, P10147 24-92 (ligand, ends and bridges not checked; also: 125I-labelled, site not given here) SLAADTPTACCFSYTSRQIPQNFIADYFETSSQCSKPGVIFLTKRSRQVCADPSEEWVQKYVSDLELSA | – | 0.36
